{"source": "the DeepSol protein solubility set", "data": [{"assay": "soluble on expression in E. coli; label from the status in PepcDB or PDB records", "values": [{"sequence": "MANHAKLVDQEIYRSPVDDFELNYQEYLNDDDDDKQEAPVAVSKAPKGKGSNHGLGCRMKGLFDGFGGTDLKTIMRHLRRRRPKSGQALTNFMLSGNMEKVVDQHVKDFVHHFGRINPENGRIMGALRGNDFFNFGGLHNNLGNTGKVYLDNLMKGKCGKKRKVHKFKPIVVEELDFGAPKPAVPATPKAPVAPVAPVIPAPAVTPQKPKVDEPTYADSVSDFGLDFETEREKCLRNKTLFEDPEFPATAASLYYRTPPRDRIIWKRPGEIIANPQLITQGESRFDVKQGALGDCWFLAALANITLYDALFYRIVPPNQSFTENYAGIFHFQFWHYGKWVDVVVDDRLPTVNNQLYYLHSADNTEFWSALVEKAYAKLHGGYENLDGGTTAEALEDFTGGLTEYFDLRKSEKAAVLAALVKGMEMGSLFGCSIDADANIKEAQLRNGLVCGHAYSITAIHSITYYGEDTTLLRLRNPWGNEKEWNGAWSDGSSEWSKIDEATKKQIDVQFARDGEFWMSFEDFFSNFTQMEVCNLTAEIFDEIAEMTGVNRATETVEEEHQWHEIMEDGEWSSKHSWRLQQQPIYLPQEPSILHFLHSTTILY", "soluble on expression in E. coli": "not soluble"}, {"sequence": "GPGSMRWPAEPGCGSQGPATPERANKLRFLLVGKTDSGNHPSGWLVARTVRYSTADAEIGPCKGLISHDCKLLLLLCGYFERNPGPLRFVQQNVNGVSAVKLSSLLALDADVYLLPEVKKLREASRICKVPPYTVYCSPPNARGGRVAILVHQRSSIQTRSVTWKALPNDTGIKAVTVKL", "soluble on expression in E. coli": "not soluble"}, {"sequence": "MGSDKIHHHHHHMYQELPPLPWLRAFDASARLGNFTLAAQELGLTPSAVSYQVRGLEATLGHKLFVRKQKSLFLTRLGQAYLPVVSKAFGDLEATTSNLFGKSAAQEITLRCLSSLNMLWLAPRLSRFQAQHPDCRLRVLSALWGETPEALQIDIDIRYGNGSWSDGEVTRLMHHEVLAVCAPALHPGPDPQAIASCPLIEVIGVTDTWHHFFALHGLAPPSSGPALKVDQSLIALELATRGMGVALIARVFAQRYLESGALVEATDLALPAREGHYIVQPEARNHFRPEVAALKDWLLQEAAQTGC", "soluble on expression in E. coli": "not soluble"}, {"sequence": "QMFWPLQPVQLSLANVFLALANYLDAKAKLFHPVTNLAPQPMRIEAARLNAATVTALNACKATLLTRSKRGHVDGPSDRFLNIYFIAQDIHERVSSSHYRYQDLATEFERSDVLFRFKYLLETQAQACRDIAQAIQLGNEYTHTDESILALAELQNSLAYLEEQQQGHWKRLLMQLTYLFNNLATVEKQLNNINNPDAERLEEDTLADTNPHTLKAMWQRISANLHKDSMLFRH", "soluble on expression in E. coli": "not soluble"}, {"sequence": "KRIVLGVGGGIAAYKSAELVRRLRDQGAEVRVVMTQGGREFITPLTLQALSGHPVHTDLLDPAAEAAMGHIELARWADLVLIAPATADLMARLVQGVANDLLTTLVLATDAQIALAPAMNQAMWRDTATQANAELLRQRGFHLFGPAAGSQACGDVGLGRMLEAEELAQRAADCFQRQALTGVHVLITAGPTQENIDPVRYITNHSSGKMGFALAEAAVEAGARVTLVTGPVHLPTPDRVQRVDVVSARDMLAACEAAMPCDLLIASAAVADYRPEVVAAHKLKKDPTSGEGLLLQLVRNPDILATLAQREDRPFSVGFAAETENLLDYAARKLKDKNLDLIVANDVANPSIGFNSDENAITVIDRDLHPSTFAQTSKGKIARQLVAFIAD", "soluble on expression in E. coli": "not soluble"}, {"sequence": "MGSDKIHHHHHHMEKTILVHAAACAPAESCGYVVNTSAGERYFPCQNLSAEPTMYFRMAPEDYLRAQAAGDVVALVHSHPDGLPFLSDVDRRLQVQSGLPWWLVCHDRIYTFRCVPFLTGRVFEHGVTDCYTLFRDAYHLAGIEMPDFSRGEDWWKNGENLYLDNLEATGFYRVSGEEAQSGDILICCFGSSVANHAAIYCGNGELLHHIPDQLSKRERYTDKWQRRTHSIWRHRAWHESAFTGIYNDLAAALASV", "soluble on expression in E. coli": "not soluble"}, {"sequence": "ELEKSEELYKSLLEDASDAIVVVDENEIVKMVNKMAEEFFGHSSEEVVGLPLSRMLVLVKTHNIPIVYNFFQEVGKGRHVAEEIRFSRVEGEQVVGLIHANTVTIGSERLIQAIIRDVT", "soluble on expression in E. coli": "not soluble"}, {"sequence": "MSNVQTSAEREIVDLSHLAFDCGMLGRLKTVSWTPVIAGDSFELDAVGALRLSPLRRGLAIDSKVDFFTFYIPHRHVYGDQWIQFMRDGVNAQPLPSVTCNRYPDHAGYVGTIVPANNRIPKFLHQSYLNIYNNYFRAPWMPERTEANPSNLNEDDARYGFRCCHLKNIWSAPLPPETKLAEEMGIESNSIDIMGLQAAYAQLHTEQERTYFMQRYRDVISSFGGSTSYDADNRPLLVMHTDFWASGYDVDGTDQSSLGQFSGRVQQTFKHSVPRFFVPEHGVMMTLALIRFPPISPLEHHYLAGKSQLTYTDLAGDPALIGNLPPREISYRDLFRDGRSGIKIKVAESIWYRTHPDYVNFKYHDLHGFPFLDDAPGTSTGDNLQEAILVRHQDYDACFQSQQLLQWNKQARYNVSVYRHMPTVRDSIMTS", "soluble on expression in E. coli": "soluble"}, {"sequence": "RWITATDWASLPQTADTPALILFHGLEGGSASRYAQSIAHYFRARGWIVVIAHFRGCSGVPNRLARAYYSGDSAEVGFMLDTVRARIPHARWHAVGVSLGGNALLKYLGEHHDEASWLAAAAGVSVPLDLVAGGKALCTGFIARRIYTAYFLKTMRRKVLEKAKRFPGAIDVIRIAHARDLRDFDDAYTARMHGYRNALDYWTRASSKPWLAHIKTPTLVLNARNDPFLPESALPIPAECSDSVLLHQPAEGGHAGFPTGPFPAHLNWLPQRLG", "soluble on expression in E. coli": "not soluble"}, {"sequence": "MPPVVPCHCTQCRKWSGHFWAATSVAMADFRLVRDEGLRWFRASDTASRGFCALCGSSLSWKPDGRDRMSFSPGAVDGPTGLATGHHIFMDEAGDYCRVSDGTPHYPGDDEA", "soluble on expression in E. coli": "not soluble"}, {"sequence": "MNAATLVDTHAVDTALQEAFEAAPEGFALFDAEDRCVIWNARYGELWSKWGVTLAVGATFESLLLAGLAAGRFPEANGDRAAWLAHQLGRRKLDRIEEIREEFGEYLRFESRRTPAGGLITTCANLTNLRRREAQALAARSFLDTIVENTPAMLFVKDGDTGAFLLVNRAAENQLGVPRAELLGKSDYDFFPKEQADAFAADDRRVIASGKLVTIDEEPLDTPHNGRRWLQTRKIAIPGEDGRRHLLVICEDITERKAGAAALAEALQKAEAGSVAKSEFLANMSHEIRTPLNGVIGMAEVLSRTALDDAQREMMEVILNSGRALNLLLSDILDLSKIEAGGLELSRDPLDLREAITAAVAVFKAVAESKGLVFRLTFADDFHDHVLGDALRVRQIVANLTSNAVKFTTAGSVIIEARTLVAEDGRIDLTVSVQDTGEGFDEDSADRLFERFQQADGSVTRKVGGTGLGLPIARRLARLMDGEISCVAHPGEGATFVFEALFLADGQRTPAASADPAGELALDRRLRVLLAEDHPTNQKVIGLMLADAADVTVAEDGQAAVEAFEKHAYDVVLMDTQMPVMDGLAAIAEIRRREREAQARRTPIISLTANAMPHQVRACLEAGADLHLAKPVSIQGLFATLGAALETRPGGEGLEHHHHHH", "soluble on expression in E. coli": "not soluble"}, {"sequence": "MAHHHHHHMPSLNNNTIREDVIFKRRVKDVLLRHGGTGGLVKVLIDFNAREAVAARQQRQTTSTDSGSSRTDVGLSHAQLLLFLQDYGVELTPFEAAYLCRAFDDHGSGFISGETFTRHLTGLNERRLRAVKKAWQSLERRNGASGKVSRELLLSTFAAVAAERAHAAAGDPGNPADGAAHDAIATTSFSSPVGGALQSTFGGGHGMHEHLKEAYMTSMMGRGSGFMAKPNAAAGGADGESGEAADRVSYAEYLAFYAGVSPQFATDEAFVTHVLQSWAADDAARPALDETAREWGPDGDPLALDGPRYVKEALNLELGISSKSYNYSHMQREHPYVEPLPPLNRPDIMATTMQRTYVPFDKAAQMLADPLVTRRGQSK", "soluble on expression in E. coli": "not soluble"}, {"sequence": "MLSVIGIGPGSQAMMTMEAIEALQAAEIVVGYKTYTHLVKAFTGDKQVIKTGMCREIERCQAAIELAQAGHNVALISSGDAGIYGMAGLVLELVSKQKLDVEVRLIPGMTASIAAASLLGAPLMHDFCHISLSDLLTPWPVIEKRIVAAGEADFVICFYNPRSRGREGHLARAFDLLAASKSAQTPVGVVKSAGRKKEEKWLTTLGDMDFEPVDMTSLVIVGNKTTYVQDGLMITPRGYTL", "soluble on expression in E. coli": "not soluble"}, {"sequence": "MSLAHEMIGTQIVTERLVALLESGTEKVLLIDSRPFVEYNTSHILEAININCSKLMKRRLQQDKVLITELIQHSAKHKVDIDCSQKVVVYDQSSQDVASLSSDCFLTVLLGKLEKSFNSVHLLAGGFAEFSRCFPGLCEGKSTLVPTCISQPCLPVANIGPTRILPNLYLGCQRDVLNKELMQQNGIGYVLNASNTCPKPDFIPESHFLRVPVNDSFCEKILPWLDKSVDFIEKAKASNGCVLVHCLAGISRSATIAIAYIMKRMDMSLDEAYRFVKEKRPTISPNFNFLGQLLDYEKKIKNQTEGHHHHHH", "soluble on expression in E. coli": "soluble"}, {"sequence": "NILTDGAIKKLTLNKLFERYMSTRELKESTRANYLKTWENRVKDEIGNIKVIQILPSHIKSFYSKLSKAGYAYSTIKFINNMIYPALEMAVDDDIIRKNPAKFSISDYGRQAEERIALTVLQQEKMLEFVKNNQVYNTYYPMLRIMLGTGVRCGELIGLTWEDVDVRTKAVSIDHQLIYKDLGDGYKFHISTPKTDSGIRTIPMTSDVQRAFEEQKKLNFMLQKGKDVEIDGYKGFIFMAKSGRPLMPSAINNILYNIVDAYNKKEVQIAKTEHRNAELLPTVSAHIMRHTACTRMAEKRMDVKVLQYIMGHAHIDVTMDVYNHVSEMSRIESEITRLESVAIS", "soluble on expression in E. coli": "not soluble"}, {"sequence": "MTQAATILRTGRKFDQVLRGAREVFMSDGFEGANVDDIARAAGVSKATLYSYFPDKRLLFVEVAQTECQLMAERILSMIDEDRPVREVLTITATQLVAFLISDFAQQVFRICLAERERFPELARAFYAAGPENGQRQICEYLEKAVTKGELVIADIPMAAEQFSELCKTRLWTRAVFGIQTRFTQAEIDEVALAAVDTFLARYGA", "soluble on expression in E. coli": "not soluble"}, {"sequence": "MGSDKIHHHHHHMAQQKDTKKITVFTSTYNRAYILPKLYESLKLQTCKDFEWLVVDDGSEDETSELFDKWLEEDVIEIAYFKKKNGGKHRAINFAASKAQGQLFFIVDSDDYLTLTAVEIICKEWEKVENKKQSAGLCFRKICYNTGKMIGADFPVSPIDASSLTICYKWKIYEDKAEVFKTELIRRFPFPEIEGEKFISEAIVWNKISVCDSPLLRCVNTGIYMCEYLPDGLTANFIKLMKRNPKGGILYYKSLFNLSCIRKNPIDILKISLRLSQCIIYSFLRCFGSYL", "soluble on expression in E. coli": "not soluble"}, {"sequence": "MLSKITQELLKMNNVLLMRPDDSEFMIPDDWSGLNAKGITYEQDNRVTESFLPFKSFYCSPVCTTVELISQNNCFAMGIRYLLEKKRDLRLNHFKAFSHKCETKPDVLIMTGCTVADTYSIFSRIVEENIMKTMTPIVIITGHHSEDLCSLASKLGGVKIISPTEKIAKIENAINDAFNSKPKKIRFLTDILSPQQIETMKMVAQGRSVNEISAAMNISIKTVYAHKVRAINKLGIKKKVYEALFYKALIQFN", "soluble on expression in E. coli": "not soluble"}, {"sequence": "MENGEAKQSVPLLTPYKMGRFNLSHRVVLAPLTRQRSYGNVPQPHAAIYYSQRTTPGGFLITEATGVSDTAQGYQDTPGIWTKEHVEAWKPIVDAVHAKGGIFFCQIWHVGRVSNSGFQPNGKAPISCSDKPLMPQIRSNGIDEALFTPPRRLGIEEIPGIVNDFRLAARNAMEAGFDGVEIHGANGYLIDQFMKDTVNDRTDEYGGSLQNRCKFPLEIVDAVAKEIGPDRVGIRLSPFADYMESGDTNPGALGLYMAESLNKYGILYCHVIEARMKTMGEVHACPHTLMPMRKAFKGTFISAGGFTREDGNEAVSKGRTDLVAYGRWFLANPDLPKRFQVDAPLNKYDRPTFYTSDPVVGYTDYPFLESTA", "soluble on expression in E. coli": "soluble"}]}]}
